These results are taken from patent US20100022453A1.

The target of assay [1] is mouse NgR1, endogenous in acute hippocampal slices (mouse) (UniProt Q99PI8). The assay can be described thus: cell-based or functional assay.
The target in assay [2] is rat NgR1 (Nogo-66 receptor), full-length, expressed on cells (rat) (UniProt Q99M75). The assay can be described thus: cell-based or functional assay.
Sequence of rat NgR1 (Nogo-66 receptor), full-length, expressed on cells (rat) (Q99M75 27-447 limits assumed): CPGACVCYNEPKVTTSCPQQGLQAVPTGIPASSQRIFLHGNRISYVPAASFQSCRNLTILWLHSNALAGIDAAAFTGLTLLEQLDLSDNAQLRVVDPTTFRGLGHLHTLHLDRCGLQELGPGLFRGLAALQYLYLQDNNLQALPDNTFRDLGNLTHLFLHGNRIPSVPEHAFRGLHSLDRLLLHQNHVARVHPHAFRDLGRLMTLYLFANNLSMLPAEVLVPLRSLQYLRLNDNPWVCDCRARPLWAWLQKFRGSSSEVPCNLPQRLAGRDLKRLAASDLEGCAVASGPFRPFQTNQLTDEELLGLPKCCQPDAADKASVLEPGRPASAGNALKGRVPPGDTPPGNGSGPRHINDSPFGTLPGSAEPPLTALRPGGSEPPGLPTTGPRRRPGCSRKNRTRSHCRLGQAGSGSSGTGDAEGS

Sequence of mouse NgR1, endogenous in acute hippocampal slices (mouse) (Q99PI8 27-447): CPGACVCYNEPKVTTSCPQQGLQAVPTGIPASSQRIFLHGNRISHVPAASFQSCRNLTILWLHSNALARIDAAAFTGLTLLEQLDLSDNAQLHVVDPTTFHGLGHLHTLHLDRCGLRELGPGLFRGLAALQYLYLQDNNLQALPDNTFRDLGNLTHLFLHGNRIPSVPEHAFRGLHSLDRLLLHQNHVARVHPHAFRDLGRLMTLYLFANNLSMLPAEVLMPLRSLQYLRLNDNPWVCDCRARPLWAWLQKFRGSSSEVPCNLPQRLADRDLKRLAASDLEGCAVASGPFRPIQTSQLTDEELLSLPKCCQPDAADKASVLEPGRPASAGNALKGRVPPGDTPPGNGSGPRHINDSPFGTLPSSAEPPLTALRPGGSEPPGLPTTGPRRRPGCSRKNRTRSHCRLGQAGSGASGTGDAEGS

In assay [1], FGF2 (Peprotech), unlabeled (ligand) had an HFS-induced LTP at Schaffer collateral-CA1 synapses, mean fEPSP % of baseline, NgR1 null slices with FGF2 (10 µg/ml) (% of baseline) of 165 and an HFS-induced LTP at Schaffer collateral-CA1 synapses, mean fEPSP % of baseline, wild-type slices with FGF2 (10 µg/ml) (% of baseline) of 139. Besides, in assay [2], the percentage of cells with processes longer than two cell bodies in diameter, PC12^NgR1 line NgR1-1, 25 ng/ml FGF2 stood at 5.6%; the percentage of cells with processes longer than two cell bodies in diameter, PC12^NgR1 line NgR1-2, 25 ng/ml FGF2 was 7.2%; the percentage of cells with processes longer than two cell bodies in diameter, control PC12 cells (very low endogenous NgR1), 25 ng/ml FGF2 came to 19.8%.
